In the supplement of paper PMC10567573:

B1: C9orf9 (parent)
chain: LTKASLKPRGCSKPPWRPPGGKL

Variants of: B1
Assay: protein stability index of a GFP-peptide fusion (GPS, HEK-293T) (PSI 1-6); higher = more stable
Conditions: c terminus: native
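Further: lentivirally expressed fusions sorted by FACS into six bins by GFP to DsRed ratio, PSI derived from sequencing read proportions per bin multiplied by bin number.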

In order of falling protein stability index:
1. LTKASLKPRGCSKPPWRPPGGVL [K22V]  4.26
2. LTKASLKPRGCSKPPWRPPGKKL [G21K]  4.05
3. LTKASLKPRGCSKPPWRPPVGKL [G20V]  3.83
4. LTKASLKPRGCSKPPWRPPGGYL [K22Y]  3.71
5. LTKASLKPRGCSKPPWRPPGGCL [K22C]  3.7
6. LTKASLKPRGCSKPPWRPPGGQL [K22Q]  3.53
7. LTKASLKPRGCSKPPWRPPGVKL [G21V]  3.39
8. LTKASLKPRGCSKPPWRPPGGNL [K22N]  3.08
9. LTKASLKPRGCSKPPWRPPGGKR [L23R]  3.08
10. LTKASLKPRGCSKPPWRPPGGKP [L23P]  3.08
11. LTKASLKPRGCSKPPWRPPGGKQ [L23Q]  2.91
12. LTKASLKPRGCSKPPWRPPGGML [K22M]  2.73
13. LTKASLKPRGCSKPPWRPPGGSL [K22S]  2.67
14. LTKASLKPRGCSKPPWRPPYGKL [G20Y]  2.56
15. LTKASLKPRGCSKPPWRPPGGKH [L23H]  2.48
16. LTKASLKPRGCSKPPWRPPGYKL [G21Y]  2.35
17. LTKASLKPRGCSKPPWRPPGGKY [L23Y]  2.13
18. LTKASLKPRGCSKPPWRPPGGGL [K22G]  2.1
19. LTKASLKPRGCSKPPWRPPGGKM [L23M]  2.1
20. LTKASLKPRGCSKPPWRPPGGFL [K22F]  2.03
21. LTKASLKPRGCSKPPWRPPGPKL [G21P]  2.03
22. LTKASLKPRGCSKPPWRPPGWKL [G21W]  2.02
23. LTKASLKPRGCSKPPWRPPGGKN [L23N]  1.92
24. LTKASLKPRGCSKPPWRPPGAKL [G21A]  1.86
25. LTKASLKPRGCSKPPWRPPGRKL [G21R]  1.75
26. LTKASLKPRGCSKPPWRPPGGKC [L23C]  1.68
27. LTKASLKPRGCSKPPWRPPGGKF [L23F]  1.24
28. LTKASLKPRGCSKPPWRPPGGKW [L23W]  1.03
